Neutralization IC50, neutralization, fold reduction in activity and pseudotyped virus neutralization data for three substances are collected here from patent publication US20240117011A1.

The target of experiment [1] is spike of variant P.1 v1 on pseudovirus. The experiment in a line: cell-based or functional assay.
For experiment [2], the target named is full-length spike B.1.617.2 (SARS-CoV-2) (UniProt P0DTC2). In words: cell-based or functional assay.

CB6 (antibody) had a neutralization IC50 in experiment [1] above 10000 ng/mL. Take REGN10987 (antibody): in experiment [2], the neutralization, fold reduction in activity stood at 4 fold. Regarding LY-CoV555 (antibody), the neutralization IC50 in experiment [1] is above 10000 ng/mL. Moreover, the pseudotyped virus neutralization in experiment [2] was above 10000 ng/mL.
